These results are taken from the supplement of paper PMC12042874.

± gives the uncertainty stated by the source.

The nature of this data set: amyloid nucleation score (Sup35N fusion, yeast selection) (log enrichment); library NNK1; higher = more nucleation; inactive = no reads after selection. In outline: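 For the nucleation score, DiMSum gave the log enrichment of output over input reads, centred on the mode score of non-aggregating sequences. Psi-negative yeast expressing Sup35N fused to peptides of 20 random codons were induced with 100 μM copper sulfate for 24 hours and grown 7 days at 30°C on medium lacking adenine and uracil. Input and output plasmid inserts were Illumina-sequenced, and sequences with under 100 input reads were excluded.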

For the substance SYYIC, the amyloid nucleation score amounted to 0.583 ± 0.41.
YQVYWSVSG came in with an amyloid nucleation score of -0.021 ± 0.51.
In the case of LFRGDGFRKLLFWNSSTFET it was 2.67 ± 0.12; in that of KQYPI, -1.33 ± 2.4.
In the case of LPGVFAPCSDYLMVMDVGHS it was -0.409 ± 0.35; in that of PVRQLERSNRLLKQGRRPLG, 0.512 ± 0.49.
The substance SMRSNWPGYCTRNGFTLSLL displayed an amyloid nucleation score of -0.684 ± 0.32.
In the case of IWRTLWMWSVGTSTNPVHSL it was -0.088 ± 0.49; in that of TNNSWCFFLRLGYT, 5.05 ± 0.076; in that of VAVTSSMFFRPNFNLNTVLS, 3.69 ± 0.067.
In the case of LALVDAHK it was -1.02 ± 1; in that of VCSGTFGYHRRYEWDWVLKG, 0.215 ± 1.2; in that of SMMEAFDPKYAVSWSVESLT, 1.26 ± 0.67.
The substance GYFYFRQIIQSDRPFIYNIP yielded an amyloid nucleation score of -0.16 ± 0.38.
In the case of CELGTIDHSEKMLMVNWCAG it was 0.967 ± 0.34; in that of YVCFVQSCFYARQGHMSGEA, 0.165 ± 0.31; in that of GFNLSRTAMMICFGYFTA, 6.61 ± 0.073.
SLLSYMFQGDDVKCHGSAVL had an amyloid nucleation score of 1.01 ± 0.76.
Under FRVSSFWYWYVHLQGYYGTV stands 1.01 ± 0.8.
Under PRCFYLMSGEMISTYECKRT stands 1.05 ± 0.39; under RRHTLSFVTGFCVIGFYGGD, 4.48 ± 0.063; under NRGSRTVLWDGNWAGTNTMP, -0.154 ± 0.47.
NVGVRLMCVSWSVHDQLA registered an amyloid nucleation score of 1.66 ± 0.35.
NCFRTSCKSGEWLQLFIRRG returned an amyloid nucleation score of 0.275 ± 0.39.
In the case of DGFKAALICAIANY it was 0.397 ± 0.3.
In the case of FFILYINSQLIREVILRRAH it was -0.128 ± 0.23; in that of SRLRLGIRTDLG, 0.218 ± 0.54; in that of PSQRNKIPGMLSLYY, -0.193 ± 0.57.
Under VCVLFELMSKVKGQKARKDQ stands 0.425 ± 1.1.
As for WTRSM, the amyloid nucleation score is 0.018 ± 0.41.
In the case of IHGTMRGYWHMLFQELNIGV it was -0.152 ± 0.54; in that of TERDLYDILTKTMGIGVSRW, -0.544 ± 0.57.
VSRFFGNRRTNSNENTAGVA displayed an amyloid nucleation score of -1.15 ± 0.43.
In the case of ISSKLLFSESSPSMSIQTHW it was 0.765 ± 0.64; in that of RYYGLFVYVARIYSALRSCK, -0.104 ± 0.33; in that of CVFRCVLVKWSVNMVLLLWF, 0.536 ± 0.3.
As to VQDLYCIRYL, the amyloid nucleation score is -1.39 ± 2.4.
In the case of LRFMCRYFLRQRNYEPWFYG it was 0.1 ± 0.55; in that of SKNAWRVKNKSEFAV, 0.488 ± 0.69.
Under DYSNERLTDGLRMGGTRVSG stands 0.251 ± 0.54; under SSRGRPLQPSIQIKYSFVMY, 4.13 ± 0.095; under GVDRVQCVFLSRVEWLGTPG, 0.198 ± 0.67.
As to TMAFVKLLNGSGNLEILKFS, the amyloid nucleation score was found to be 0.785 ± 0.44.
In the case of RNTFHFNNMALPVLQT it was -1.23 ± 0.77; in that of LWFSYATCICIPRIPSNC, 6.26 ± 0.071.
As to CRCFGRFLVITSI, the amyloid nucleation score result was “inactive”.
In the case of VNFILNF it was 5.41 ± 0.066; in that of KHDIIESQPQVVHNNRCVWL, “inactive”.
Under YSVMYMQSFFDKWLSTSAFR stands -1.17 ± 1.4; under PWYVIKV, -0.055 ± 0.31; under VEPSYMFGYVVDWEHMVLKS, -2.11 ± 2.4.
In the case of LFCSLGSSPAYVNKWCVHLE it was 0.862 ± 0.45.
On to ARVSRSFVSRAANIHGNCRR, for which the amyloid nucleation score is -0.029 ± 1.1.
Substance QVIEKFVAGCEGQKR returned an amyloid nucleation score of 2.31 ± 0.14.
In the case of KNYDGCHMSYVGSRGWITSL, the amyloid nucleation score was 0.215 ± 1.4.
LTSTDISMGRCAVHQSYLFK had an amyloid nucleation score of 2.69 ± 0.29.
In the case of FTLYYFLSC it was 0.406 ± 0.56; in that of TRSKMALGVQYHGLMQLYCR, 0.121 ± 0.31.
Take GNVGYLGVSRYLHLC: the amyloid nucleation score was -0.073 ± 0.41.
Under LIEDHVLYHVRAKKYRSHYI stands -0.381 ± 0.79.
Under NLVRLILRCSDRAKRFLRAL stands -0.218 ± 0.36.
Under NVIRTQQSR stands 0.208 ± 0.52; under INYHMVNLNVLAMC, 2.17 ± 0.46; under GHSLHLWVTTKS, 0.561 ± 0.66.
RARCAVGS gave an amyloid nucleation score of -0.396 ± 1.5.
Under YLPTVIPVFI stands 0.125 ± 0.98; under TASRYLVVRN, 0.875 ± 0.43; under IEQSNMVTARRLELLRSAVS, 0.339 ± 0.54.
In the case of AGFVYFPMYNKLMELFTRGI it was 1.29 ± 0.66; in that of LVPVWARLR, -0.686 ± 0.65.
In the case of LSFEIFMNVTRPSICHKVSL it was -2.04 ± 2.4.
With SAPENSWGAWLDYGELEVGW, the amyloid nucleation score was 0.016 ± 0.35.
As for KIVRSRWFIICACVKLRTRL, the amyloid nucleation score came out at 0.427 ± 0.36.
FLNTNEKIKMQPIFPFFLLL showed an amyloid nucleation score of -0.495 ± 0.65.
In the case of ICMILVPFMPT it was 0.976 ± 1.1.
In turn, MYNNTALRRSEYADCH registered an amyloid nucleation score of 0.872 ± 0.8.
In the case of NVLGLFQLRDSTQNGAMYIL it was 0.076 ± 0.62.
In the case of YNQISLD it was -0.38 ± 1.1; in that of RFQVPLCIPLINC, 0.886 ± 0.74.
Under TFYSCHP stands 1.49 ± 0.37; under GTLNMIFRFGMHAIVSYFWG, 0.024 ± 0.4.
For the substance RYIVVG, the amyloid nucleation score is 0.106 ± 0.24.
Under CYSRAYEEARSAI stands 1.21 ± 0.76; under SFFLIIVQREKRVRTSGCL, 0.954 ± 0.8; under AVVMTLIVYALGYT, 1.27 ± 0.3.
In the case of HSGQYCSAHPGFVK it was -0.49 ± 0.5.
In the case of NGRENWSDETGSMFECALYS it was 1.28 ± 0.44; in that of LHRSRFHDNTTSNGLLKGTV, -0.574 ± 0.6.
With RGSYHRLWCI, the amyloid nucleation score was 0.114 ± 0.72.
In the case of VWGDRWTTVSGRSAEYRTKS it was 1.34 ± 0.15; in that of VSSFWRELVPYGMVCRESSL, 0.178 ± 0.56.
Under VWFYRLIVSEVGFFRVKLKM stands -1.58 ± 1.4; under MTYTSWMMNRFNITNSYNLV, 0.755 ± 0.97.
Consider YRAAQGHLASELYGLVTV, for which the amyloid nucleation score is 0.36 ± 0.69.
In the case of IVLWCTWYYNWNWPSALFRM it was -0.192 ± 0.78; in that of LFVGRGIAFVSFGPLALS, 3.83 ± 0.08.
In the case of STYSSWQDTRVFNLAMLSI it was -0.68 ± 0.85; in that of NLYPDLGVLVGCHSDKWSNL, -0.115 ± 1.3.
In the case of NTVRNMSVNELFVSFDRGWF it was 4.83 ± 0.063.
As to HFYSRYRTPQTRS, the amyloid nucleation score was -0.549 ± 0.64.
In the case of IHVAFHSLSQCGRCVYCSVL it was 3.25 ± 0.16.
Under TEGLKVTLIHTTPLFCP stands 0.239 ± 0.42; under HVQIILYLSFKTRRLVDLCL, “inactive”; under KMECVVRVSGCRDKVDWTAG, 2.53 ± 0.2.
In the case of QFILRDNVVRRMKFRGVPNF it was 2.22 ± 0.55; in that of FVPIDLGNGK, 0.564 ± 0.51.
As for NLSIRCLASFCPTGESWIRV, the amyloid nucleation score is 0.971 ± 0.79.
On to HLLALFTSFVTITPW, for which the amyloid nucleation score is -0.986 ± 0.88.
Under ANVNSWTRPAIMIVLDWGVP stands 0.868 ± 0.58.
In the case of RHFEDYMELSSLSLGMGEG it was -0.394 ± 0.63; in that of QVKDIGLPMHHACF, -1.36 ± 1.1; in that of GLRLNITNSRGRPRETWRGR, 2.33 ± 0.24.
Under WDRTTCVYSLLPMGNSPKVE stands 0.144 ± 0.45; under TYLQRCSIFRPSLTSMG, 0.273 ± 0.45; under RNQVRDSRVISGPNFSSMKK, -0.51 ± 0.71.
Take PFYRNLFSWAGYILLCGCHE: the amyloid nucleation score is -0.775 ± 0.75.
Under INYFQDD stands -0.727 ± 1.4; under GAVPDPKVVGMGFQMGAVNS, 0.877 ± 0.7; under FPLSTQ, 2.37 ± 0.43.
MCLTRSSLEVRQVTIVMWSG: the amyloid nucleation score worked out at 0.387 ± 0.52.
In the case of RGLTYVRVVGLARIGSACSV it was 0.335 ± 0.53.
MLEESVLHSLLICGANSVFK yielded an amyloid nucleation score of 0.195 ± 1.1.
With GFFDSCLEMFTLSTYFCTFY, the amyloid nucleation score came to 2.86 ± 0.096.
CNCVWRCWV had an amyloid nucleation score of 1.14 ± 0.78.
For TVRRVGISWNWYIKTLYGSD, the amyloid nucleation score is -1.12 ± 0.88.
Under LHTKVV stands 0.431 ± 0.77; under GSRSHRSH, 0.751 ± 0.67.
In the case of FLRRIGMGYIRLRVLGSIFL it was 0.854 ± 0.49.
Under LLQGCNEVPVRKSKVVSSVR stands 0.441 ± 0.24; under VLSSDGGGFVYFRYSGYTCR, 0.253 ± 0.67.
NVYSIYIINYMAYKVFWDMI came in with an amyloid nucleation score of -0.116 ± 0.29.
In the case of TTWRMIFVVKRLHWFGLK it was -0.445 ± 0.46; in that of RGMGVAWAYLSSNTRPRRLN, 0.792 ± 0.76.
In the case of ASRSSIPSG it was -0.038 ± 1; in that of VVHLSLCMRCALWRYRELVC, 1.12 ± 0.55; in that of FCIYVLFFRSVDYPLRVVEL, -0.529 ± 0.67.
In the case of YKYREGGKWPL it was -1.3 ± 2.4.
For SCYIDYNFYSWQGSWYCFKI, the amyloid nucleation score entry was “inactive”.
Turning to KAIRMLFSVMIVKR, the amyloid nucleation score result is “inactive”.
Under SNLVGEVYCNL stands 0.914 ± 0.57.
